Laboratory results: paper PMC4675670

Test system: O=C(O)[C@@H]1CCCN1
Test: enzyme kinetics, Km
Assay type: biochemical, Plasmodium falciparum
Conditions: proline-binding pocket

Q: With “cytoplasmic prolyl-tRNA synthetase (PfcPRS, PF3D7_1213800) (Plasmodium falciparum 3D7)” as the substance, how does the Km read?
A: Its Km is 117.0 µM.

Q: How did the Km turn out when “cytoplasmic prolyl-tRNA synthetase (PfcPRS, PF3D7_1213800) (Plasmodium falciparum 3D7; L482H)” was run?
A: Its Km is 747.7 µM.
